Source: patent US20220089694A1 (US Dept. of Health and Human Services, published 2022)

T1: EBOV GP on pseudotyped lentiviral particles (Ebola virus (EBOV), UniProt Q05320 33-676)
T1 sequence: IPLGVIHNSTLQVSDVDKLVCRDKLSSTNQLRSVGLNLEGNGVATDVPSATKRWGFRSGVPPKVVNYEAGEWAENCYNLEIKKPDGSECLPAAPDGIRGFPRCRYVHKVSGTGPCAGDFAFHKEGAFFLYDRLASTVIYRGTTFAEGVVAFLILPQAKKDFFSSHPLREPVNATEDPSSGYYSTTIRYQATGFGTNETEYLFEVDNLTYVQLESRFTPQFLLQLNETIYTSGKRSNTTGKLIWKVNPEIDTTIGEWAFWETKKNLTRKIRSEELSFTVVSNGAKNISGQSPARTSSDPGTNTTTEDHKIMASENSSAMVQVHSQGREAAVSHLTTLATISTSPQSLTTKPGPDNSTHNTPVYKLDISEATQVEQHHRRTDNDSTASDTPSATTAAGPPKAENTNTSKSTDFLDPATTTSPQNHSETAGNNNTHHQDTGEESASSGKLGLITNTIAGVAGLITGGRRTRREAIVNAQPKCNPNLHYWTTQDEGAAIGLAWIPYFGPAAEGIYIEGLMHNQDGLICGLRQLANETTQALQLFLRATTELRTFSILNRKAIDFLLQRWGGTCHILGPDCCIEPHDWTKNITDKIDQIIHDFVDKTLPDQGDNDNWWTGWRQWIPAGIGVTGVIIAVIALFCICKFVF

B1: EboV.YD.01 IgG (antibody, V domains shown)
VH: QVRLVQSGGGLVKPGGSLRLSCAASGFTFSTFAMHWVRQAPGKGLEWVSSISRSSGSINYADSVKGRFTISRDNAKNSLFLQMNSLRADDTAVYYCARENTIPFGGGVVLERASHFDYWGQGTTVTVSS
VL: DIRVTQSPSSLSASVGDRVTIICRASQSSSTFLNWYQQKPGKAPNLLIYAASSLQSGVPSRFSGSGSGTDFTLTISSLQPEDFATYYCQQSYSAPYTFGQGTKVDIK
B2: EboV.YD.03 IgG (antibody, V domains shown)
VH: QVQLQESGPGLVKPSETLSLTCTVSGDSLSSSYWSWIRQSAGKGLEYIGRTYVSGNTKYNPSLKSRVTMSVDTSKNQFSLRLTSVTAADTAVYYCARIRVLPAAMLRGDYWYFDLWGRGTLVTVSS
VL: SYELTQLPSVSVSPGQTASITCSGDKVENKYVCWYQQKSGQSPVLVIYEDSKRPSGIPERFSGSNSGNTATLTISGTQTMDEADYFCQAWDSSIGVFGTGTKLTVL
B3: EboV.YD.04 IgG (antibody, V domains shown)
VH: QVQLVESGGGLVKPGGSLRLSCAASGFMFSNAWMNWVRQAPGKGLEWVGRIKSRSDGGTTDYAAPVKGRFTFSREDSKNMLYLQMNSLKREDTAVYYCTTRVSIFRGPIEDVWGQGTTVTVSS
VL: QPVLTQPPSVSGAPGQRVTISCAGSSSNIGAGYDVYWYQQLPGTAPKLLIYGNNNRPSGVPDRFSGSKSGTSASLAITGLQAEDEAEYYCQSYDSSLRDSYVFGSGTKVTVL
B4: EboV.YD.02 IgG (antibody, V domains shown)
VH: QVQLVQSGAEVKKPGTSVKISCKASGYSFTSKYMHWVRQAPGQGLEWMGKINPSGGRRDYAQKFQGRVTMTRDTSTSTVYMELSSLRSGDTAVYYCARDMHGVLSWYHALDYWGQGTLVTVSS
VL: DIRVTQSPSSLSTSVGDRVTITCRASQDIGRYLNWYQQKPGKAPKLLIYGASSLQSGVPSRFSGSGSGTDFTLTISSLQPEDFATYYCQQGYRIPITFGQGTRLEIK

These binders were tested against T1, EBOV GP on pseudotyped lentiviral … (assay: cell-based or functional assay).

Row | Binder | % EBOV Neut. (10 µg/mL) [%]
1 | B1 | 55.1
2 | B2 | 97.3
3 | B3 | 98.8
4 | B4 | 70.8

Molecular target: T1, EBOV GP on pseudotyped lentiviral …
Experiment: cell-based or functional assay
Remark: another data set of the same source

Row | Binder | IC50, neutralization activity in a pseudotyped virus entry assay [µg/mL]
5 | B1 | 7.1
6 | B2 | 1.1
7 | B3 | 0.5
8 | B4 | 1.6
